The source of these data is paper PMC4364296.

The target in this assay is T1, His-SlmA/SBS (E. coli), P0C093.
T1 chain: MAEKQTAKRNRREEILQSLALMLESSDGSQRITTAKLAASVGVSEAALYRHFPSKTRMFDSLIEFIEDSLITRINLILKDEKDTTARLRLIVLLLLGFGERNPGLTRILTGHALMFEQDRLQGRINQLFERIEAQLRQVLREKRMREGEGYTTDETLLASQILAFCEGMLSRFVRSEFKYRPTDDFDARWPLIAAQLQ
Briefly: BLI. Particulars: remark: other sources report otherwise.

B1: FtsZ-360, P0A9A6 1-360 (domain or fragment)
chain: MFEPMELTNDAVIKVIGVGGGGGNAVEHMVRERIEGVEFFAVNTDAQALRKTAVGQTIQIGSGITKGLGAGANPEVGRNAADEDRDALRAALEGADMVFIAAGMGGGTGTGAAPVVAEVAKDLGILTVAVVTKPFNFEGKKRMAFAEQGITELSKHVDSLITIPNDKLLKVLGRGISLLDAFGAANDVLKGAVQGIAELITRPGLMNVDFADVRTVMSEMGYAMMGSGVASGEDRAEEAAEMAISSPLLEDIDLSGARGVLVNITAGFDLRLDEFETVGNTIRAFASDNATVVIGTSLDPDMNDELRVTVVATGIGMDKRPEITLVTNKQVQQPVMDRYQQHGMAPLTQEQKPVAKVVND
For the molecule B1, the dissociation constant Kd (commonly the equilibrium constant for the complex coming apart) was determined as 82 µM.
